Measured values from paper PMC4222680.

Key:
[1] = target: TDG G199S G199S (human (rs4135113 variant)) (UniProt Q13569); test: EMSA; conditions: tetrahydrofuran abasic analog (X, written N) at position 17 of strand 2, opposite A12 of strand 1; 20 mM HEPES pH 7.3, 1 mM EDTA, 10 mM (NH4)2SO4, 1 mM DTT, 0.2% Tween-20, 30 mM KCl; 2 nM DNA, 30 min at room temperature; 6% native PAGE at 4 C
TDG WT (human) = TDG WT (human) (UniProt Q13569); test: EMSA; conditions: tetrahydrofuran abasic analog (X, written N) at position 17 of strand 2, opposite A12 of strand 1; 20 mM HEPES pH 7.3, 1 mM EDTA, 10 mM (NH4)2SO4, 1 mM DTT, 0.2% Tween-20, 30 mM KCl; 2 nM DNA, 30 min at room temperature; 6% native PAGE at 4 C
Sequence of TDG WT (human) (Q13569 whole entry): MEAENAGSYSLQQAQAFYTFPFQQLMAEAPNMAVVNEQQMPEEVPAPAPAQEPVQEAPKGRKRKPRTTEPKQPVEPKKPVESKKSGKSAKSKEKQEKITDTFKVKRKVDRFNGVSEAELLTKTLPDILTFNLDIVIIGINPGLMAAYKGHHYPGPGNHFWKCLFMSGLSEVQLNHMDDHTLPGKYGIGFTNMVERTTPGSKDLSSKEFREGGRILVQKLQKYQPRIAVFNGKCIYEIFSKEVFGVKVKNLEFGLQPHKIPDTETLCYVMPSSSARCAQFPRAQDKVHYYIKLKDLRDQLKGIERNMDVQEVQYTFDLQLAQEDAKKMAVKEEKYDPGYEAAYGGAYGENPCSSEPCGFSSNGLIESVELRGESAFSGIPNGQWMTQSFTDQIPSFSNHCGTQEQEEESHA

Sequence of TDG G199S G199S (human (rs4135113 variant)) (Q13569 whole entry G199S): as the sequence (Q13569 whole entry) above, with G199S counted along it

CAGCTCTGTACATGAGCAGTGGTGACAC / GTGTCACCACTGCTCANGTACAGAGCTG [28-mer THF:A]
Kd [1]: 35 nM
Kd (TDG WT (human)): 153 nM
